This is an account of results in paper PMC7774954 (PLoS ONE, 2020).

The target in one assay is DLG4-1 (human, UniProt P78352 65-151). Nature of the assay: holdup assay; biotinylated PBM peptide saturating streptavidin resin (biotin resin as reference); tag-PDZ at 4 uM in crude E. coli lysate, 15 min, filtration, free tag-PDZ by capillary electrophoresis; singlicate; BI cut-off 0.20; BI converted into KD with the peptide concentration back-calculated from FP. Conditions: one partner purified.

In the next assay the target is T1, MAGI1-3 (human, UniProt Q96QZ7 643-721).
T1 construct: PDZ domain number 3 of human MAGI1; also called MAGI1 PDZ dom 3; source: E. coli, in crude cell lysate; not shown: His, N-terminal, kept
Described as above. Conditions: one partner purified.

The target of a further assay is T2, NHERF1-1 (human, UniProt O14745 14-94).
T2 construct: PDZ domain number 1 of human NHERF1; also called NHERF1 PDZ dom 1; first PDZ domain of the NHERF1 protein; source: E. coli, in crude cell lysate; not shown: His, N-terminal, kept
T2 sequence (looked up): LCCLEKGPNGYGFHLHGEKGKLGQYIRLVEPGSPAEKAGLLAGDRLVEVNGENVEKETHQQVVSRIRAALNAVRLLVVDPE
Described as above. Conditions: one partner purified.

A further assay deals with T3, MAGI2-2 (human, UniProt Q86UL8 426-510).
T3 construct: PDZ domain number 2 of human MAGI2; also called MAGI2 PDZ dom 2; source: E. coli, in crude cell lysate; not shown: His, N-terminal, kept
The description is as above. Conditions: one partner purified.

For a further assay, the target named is T4, MAGI2-3 (human, UniProt Q86UL8 605-683).
T4 construct: PDZ domain number 3 of human MAGI2; also called MAGI2 PDZ dom 3; source: E. coli, in crude cell lysate; not shown: His, N-terminal, kept
The description is as above. Particulars: one partner purified.

In assay [1] the target is T5, GRID2IP-2, second PDZ domain of GRID2IP (human, UniProt A4D2P6 279-356).
T5 construct: GRID2IP, human, PDZ domain 2; not shown: His6, N-terminal, kept; MBP, N-terminal, kept
Put plainly: fluorescence polarisation; competitive: pre-formed complex of PDZ domain (>60-80% complex) and 50 nM fluorescent tracer peptide, increasing amount of unlabeled PTEN peptide (8 concentrations); 20 mM HEPES pH 7.5, 150 mM NaCl, 0.5 mM TCEP, 0.01% Tween 20; triplicate; competitive binding model (ProFit); apparent. Conditions: both partners purified.

Assay [2] deals with T6, PDZD7-3, third PDZ domain of PDZD7 (human, UniProt Q9H5P4 862-934).
T6 construct: PDZD7, human, PDZ domain 3; not shown: His6, N-terminal, kept; MBP, N-terminal, kept
T6 sequence (looked up): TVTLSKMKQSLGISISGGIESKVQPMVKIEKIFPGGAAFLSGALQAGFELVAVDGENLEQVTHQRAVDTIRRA
The assay is described as above. Particulars: both partners purified.

The target in assay [3] is T7, MAGI2-2, second PDZ domain of MAGI2 (human, UniProt Q86UL8 426-510).
T7 construct: not shown: His6, N-terminal, kept; MBP, N-terminal, kept
Described as above. Conditions: both partners purified.

Another assay concerns the target T8, PTPN13-2 (human, UniProt Q12923 1368-1452).
T8 construct: PDZ domain number 2 of human PTPN13; also called PTPN13 PDZ dom 2; source: E. coli, in crude cell lysate; not shown: His, N-terminal, kept
T8 sequence (looked up): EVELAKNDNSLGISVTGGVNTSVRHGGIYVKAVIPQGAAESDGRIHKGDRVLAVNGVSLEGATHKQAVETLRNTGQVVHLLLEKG
Nature of the assay: holdup assay; biotinylated PBM peptide saturating streptavidin resin (biotin resin as reference); tag-PDZ at 4 uM in crude E. coli lysate, 15 min, filtration, free tag-PDZ by capillary electrophoresis; singlicate; BI cut-off 0.20; BI converted into KD with the peptide concentration back-calculated from FP. Particulars: one partner purified.

In a further assay the target is T9, MAGI3-2 (human, UniProt Q5TCQ9 410-492).
T9 construct: PDZ domain number 2 of human MAGI3; also called MAGI3 PDZ dom 2; source: E. coli, in crude cell lysate; not shown: His, N-terminal, kept
The description is as above. Particulars: one partner purified.

In another assay the target is T10, PARD3-3 (human, UniProt Q8TEW0 590-677).
T10 construct: the text says PARD3-1; also called PARD3 PDZ dom 3; source: E. coli, in crude cell lysate; not shown: His, N-terminal, kept
The assay is described as above. Particulars: one partner purified.

The target of a further assay is T11, NHERF2-2 (human, UniProt Q15599 150-230).
T11 construct: PDZ domain number 2 of human NHERF2; also called NHERF2 PDZ dom 2; source: E. coli, in crude cell lysate; not shown: His, N-terminal, kept
The assay is described as above. Conditions: one partner purified.

Another assay addresses T12, DLG1-2 (human, UniProt Q12959 319-405).
T12 construct: PDZ domain number 2 of human DLG1; also called DLG1 PDZ dom 2; source: E. coli, in crude cell lysate; not shown: His, N-terminal, kept
The assay is described as above. Particulars: one partner purified.

The target in another assay is T13, NHERF2-1 (human, UniProt Q15599 11-90).
T13 construct: PDZ domain number 1 of human NHERF2; also called NHERF2 PDZ dom 1; source: E. coli, in crude cell lysate; not shown: His, N-terminal, kept
The description is as above. Conditions: one partner purified.

The target of assay [4] is T5, GRID2IP-2, second PDZ domain of GRID2IP. Nature of the assay: fluorescence polarisation; direct: N-terminally fluorescein-labelled PBM peptide (tracer) with increasing amounts of MBP-PDZ; 384-well plates; triplicate; direct binding model (ProFit). Particulars: both partners purified.
The target of assay [5] is T14, PARD3B-1, first PDZ domain of PARD3B (human, UniProt Q8TEW8 201-289).
T14 construct: PARD3B, human, PDZ domain 1; not shown: His6, N-terminal, kept; MBP, N-terminal, kept
T14 sequence (looked up): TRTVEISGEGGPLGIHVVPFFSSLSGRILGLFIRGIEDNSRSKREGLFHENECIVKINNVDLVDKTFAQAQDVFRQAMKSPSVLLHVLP
The description is as above. Particulars: both partners purified.

Assay [6] has as its target T6, PDZD7-3, third PDZ domain of PDZD7. The description is as above. Particulars: both partners purified.

Where no end group is shown, it is not given here. The star is where a group is joined. Biotin = O=C1N[C@H]2[C@H](CS[C@H]2CCCCC(=O)*)N1; TTDS = NCCCOCCOCCOCCCNC(=O)CCC(=O)*

T1 sequence (Q96QZ7 643-721): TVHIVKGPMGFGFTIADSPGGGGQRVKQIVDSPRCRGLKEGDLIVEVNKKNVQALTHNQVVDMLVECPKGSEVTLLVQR
T4 sequence (Q86UL8 605-683): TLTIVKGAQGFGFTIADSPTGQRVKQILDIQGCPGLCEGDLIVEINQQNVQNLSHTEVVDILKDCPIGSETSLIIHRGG
T5 sequence (A4D2P6 279-356): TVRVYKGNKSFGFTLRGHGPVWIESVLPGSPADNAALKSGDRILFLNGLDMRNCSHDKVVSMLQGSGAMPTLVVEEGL
T3 sequence (Q86UL8 426-510): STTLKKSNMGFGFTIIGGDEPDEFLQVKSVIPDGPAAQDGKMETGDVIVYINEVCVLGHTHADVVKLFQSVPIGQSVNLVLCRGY
Sequence of DLG4-1 (P78352 65-151, looked up): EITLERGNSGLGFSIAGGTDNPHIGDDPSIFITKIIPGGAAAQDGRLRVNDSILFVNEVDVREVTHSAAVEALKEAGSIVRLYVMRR
T7 sequence (Q86UL8 426-510): as the sequence (Q86UL8 426-510) above
T9 sequence (Q5TCQ9 410-492): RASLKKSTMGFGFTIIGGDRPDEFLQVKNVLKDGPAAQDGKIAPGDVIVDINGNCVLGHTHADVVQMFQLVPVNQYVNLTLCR
T10 sequence (Q8TEW0 590-677): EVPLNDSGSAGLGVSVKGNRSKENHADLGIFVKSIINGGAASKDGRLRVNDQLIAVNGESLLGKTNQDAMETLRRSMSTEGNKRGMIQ
T13 sequence (Q15599 11-90): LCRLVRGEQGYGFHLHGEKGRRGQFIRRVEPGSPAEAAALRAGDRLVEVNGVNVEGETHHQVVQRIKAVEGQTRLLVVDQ
T11 sequence (Q15599 150-230): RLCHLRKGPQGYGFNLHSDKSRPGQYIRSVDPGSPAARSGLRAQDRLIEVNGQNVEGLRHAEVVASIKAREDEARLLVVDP

B1: PTEN_Ac (peptide, UniProt P60484 393-403, looked up)
peptide: {Biotin-TTDS}-DEDQHTQITK(Ac)V
notes: also called acetylated version of PTEN_11; acetylated peptide; source: synthetic peptide (Chemical Peptide Synthesis Service of the IGBMC, Fmoc)
Regarding B1, the Kd in the assay with DLG4-1 is 155 µM; with MAGI1-3, 10 µM; in the assay with NHERF1-1 it was 14 µM; in the assay with MAGI2-2 it was 56 µM; in the assay with MAGI2-3 it was 15 µM.

B2: PTEN_Ac, 11-mer PTEN PDZ-binding motif peptide acetylated at K402 (peptide)
peptide: {Biotin-TTDS}-DEDQHTQITK(Ac)V
notes: PTEN, human, canonical isoform I, residues 393-403, K402 acetylated (acK); source: synthetic peptide (Chemical Peptide Synthesis Service of the IGBMC)
For the molecule B2, the Kd was determined as 36.7 µM in assay [1], 2.84 µM in assay [2] and 66.4 µM in assay [3].

B3: PTEN_KR (peptide, UniProt P60484 393-403, looked up)
peptide: {Biotin-TTDS}-DEDQHTQITRV
notes: also called K402R mutant; source: synthetic peptide (Chemical Peptide Synthesis Service of the IGBMC, Fmoc)
Regarding B3, the Kd in the assay with PTPN13-2 was 153 µM; with MAGI3-2, 29 µM; with PARD3-3, 56 µM; with NHERF2-2 it was 21 µM; with DLG4-1, 81 µM; in the assay with DLG1-2, 71 µM. Further, the Kd in the assay with NHERF2-1 is 120 µM; with MAGI1-3, 15 µM; with NHERF1-1, 4 µM; with MAGI2-2, 29 µM; with MAGI2-3, 21 µM.

B4: PTEN_11 (peptide, UniProt P60484 393-403, looked up)
peptide: {Biotin-TTDS}-DEDQHTQITKV
notes: also called 11-mer wild-type PTEN PBM peptide; native PTEN_11 PBM; source: synthetic peptide (Chemical Peptide Synthesis Service of the IGBMC, Fmoc)
On to B4, for which the Kd with DLG4-1 is 293 µM; with MAGI1-3, 30 µM; in the assay with NHERF1-1, 33 µM; with MAGI2-2 it was 152 µM; with MAGI2-3 it was 47 µM.

B5: PTEN_11, 11-mer wild-type PDZ-binding motif peptide of PTEN (peptide)
peptide: {Biotin-TTDS}-DEDQHTQITKV
notes: Labelled 'PTEN' in Supp; source: synthetic peptide (Chemical Peptide Synthesis Service of the IGBMC)
B5: the Kd in [1] came out at 87 µM; in assay [2] it was 20.1 µM.

B6: PTEN_KR, 11-mer PTEN PDZ-binding motif peptide with K402R (peptide)
peptide: {Biotin-TTDS}-DEDQHTQITRV
notes: PTEN, human, canonical isoform I, residues 393-403 with K402R; source: synthetic peptide (Chemical Peptide Synthesis Service of the IGBMC)
B6: the Kd in assay [1] was determined as 51.6 µM; in assay [2], 8.2 µM.

In the case of fluorescein-KLPSTTL (source: synthetic peptide) [fRSK1, fluorescein-labelled RSK1 PBM peptide], the Kd stood at 5.43 µM in [4], 33.7 µM in [5] and 1570 nM in assay [6].

B7: PTEN_13, 13-mer wild-type PDZ-binding motif peptide of PTEN (peptide)
peptide: {Biotin-TTDS}-PFDEDQHTQITKV
notes: source: synthetic peptide, bought: JPT Innovative Peptide Solutions (70%-80% purity)
As to B7, the figures for the Kd in assay [2] and in assay [3] were 5.76 µM and 79.7 µM, respectively.
